Test results published in paper PMC13148777.

Key:
[1] = molecular target: HAdV-D10 fiber protein (human adenovirus D 10 (HAdV-D10)); test: cryo-EM structure; purified HAdV-D10 virions; symmetry expansion, focused classification and refinement of penton and fiber shaft without symmetry (C1); 4.6 Å global, fiber shaft about 10 Å; AlphaFold3 fiber-penton model fitted as a rigid body
[2] = molecular target: HAdV-D10 penton base (human adenovirus D 10 (HAdV-D10)); test: as above

| Substance | stoichiometry N [1] | stoichiometry N [2] |
| --- | --- | --- |
| HAdV-D10 fiber protein (natural protein) | 3 | – |
| HAdV-D10 penton base (natural protein) | – | 5 |
